The experiment has as its target complement protein C1q (human) (UniProt P02745). Nature of the experiment: cell-based or functional assay.
UniProt P02745, sequence (P02745 23-245 limits assumed, chain 1 of 3): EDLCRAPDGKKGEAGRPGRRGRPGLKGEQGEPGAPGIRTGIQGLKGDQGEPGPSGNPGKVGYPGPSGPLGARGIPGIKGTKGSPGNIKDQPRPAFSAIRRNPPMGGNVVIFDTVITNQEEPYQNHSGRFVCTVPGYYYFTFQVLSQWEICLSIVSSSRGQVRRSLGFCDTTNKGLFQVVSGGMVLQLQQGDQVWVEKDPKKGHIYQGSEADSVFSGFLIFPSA
UniProt P02745, sequence (P02746 28-253 limits assumed, chain 2 of 3, further chain): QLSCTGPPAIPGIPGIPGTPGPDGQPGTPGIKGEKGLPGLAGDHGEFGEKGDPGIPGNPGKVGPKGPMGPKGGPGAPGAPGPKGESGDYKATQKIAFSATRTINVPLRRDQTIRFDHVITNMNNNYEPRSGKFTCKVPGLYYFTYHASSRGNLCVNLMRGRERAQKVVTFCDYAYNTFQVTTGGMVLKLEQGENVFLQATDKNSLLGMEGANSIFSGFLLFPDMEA
UniProt P02745, sequence (P02747 29-245 limits assumed, chain 3 of 3, further chain): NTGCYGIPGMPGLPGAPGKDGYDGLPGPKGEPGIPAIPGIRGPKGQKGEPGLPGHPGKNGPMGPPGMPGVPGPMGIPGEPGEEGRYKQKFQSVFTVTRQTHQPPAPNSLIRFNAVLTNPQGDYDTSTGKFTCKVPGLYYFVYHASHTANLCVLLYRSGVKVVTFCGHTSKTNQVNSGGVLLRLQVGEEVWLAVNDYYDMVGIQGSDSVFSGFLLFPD

“Hu1D10-IgG1 single mutant S324M (antibody)” displayed a fold-increase in the EC50 value compared with wild-type Hu1D10-IgG1 antibody (CDC) of 2 fold. Take “Hu1D10-IgG1 double mutant S324W/I332M (antibody)”: the average fold-increase in the EC50 value compared with wild-type Hu1D10-IgG1 antibody (CDC) fell in the range of 13 to 16 fold and the average fold-increase in the maximum percent lysis (CDC) was in the range of 1.3 to 1.4 fold. Turning to “Hu1D10-IgG1 double mutant S324N/I332M (antibody)”, the average fold-increase in the EC50 value compared with wild-type Hu1D10-IgG1 antibody (CDC) is 13 to 16 fold and the average fold-increase in the maximum percent lysis (CDC) fell in the range of 1.3 to 1.4 fold. The corresponding values for “Hu1D10-IgG1 double mutant S324N/I332F (antibody)” are 13 to 16 fold and 1.3 to 1.4 fold.

In turn, “Hu1D10-IgG1 single mutant S324Y (antibody)” displayed a fold-increase in the EC50 value compared with wild-type Hu1D10-IgG1 antibody (CDC) of 2 fold. “Hu1D10-IgG1 single mutant I332M (antibody)” had a fold-increase in the EC50 value compared with wild-type Hu1D10-IgG1 antibody (CDC) of 2.5 fold and a fold-increase in the maximum percent lysis (CDC) of 1.2 to 1.4 fold. “Hu1D10-IgG1 single mutant I332G (antibody)” came in with a fold-increase in the EC50 value compared with wild-type Hu1D10-IgG1 antibody (CDC) of 1.5 fold and a fold-increase in the maximum percent lysis (CDC) of 1.2 to 1.4 fold. For “Hu1D10-IgG1 single mutant I332F (antibody)” the same measures were 2.5 fold and 1.2 to 1.4 fold. Turning to “Hu1D10-IgG1 double mutant S324W/I332F (antibody)”, the average fold-increase in the EC50 value compared with wild-type Hu1D10-IgG1 antibody (CDC) is 13 to 16 fold and the average fold-increase in the maximum percent lysis (CDC) was in the range of 1.3 to 1.4 fold.

Values taken from patent US20160137732A1.
